# According to patent publication US20120121603A1 (THERACLONE SCIENCES, published 2012):
# Biological target: T1, M2 protein expressed on the surface of PR8-infected MDCK cells (Influenza A virus A/Puerto Rico/8/1932 …, UniProt P06821 1-97)
# T1 construct: whole, on cells
# Assay: FMAT, crude supernatant on PR8-infected MDCK cells
# T1 sequence (P06821 whole entry): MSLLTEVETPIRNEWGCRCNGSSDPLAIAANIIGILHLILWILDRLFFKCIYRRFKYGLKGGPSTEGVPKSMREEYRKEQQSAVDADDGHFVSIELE
binder,measurement,value
"23K12 (antibody, V domains shown) VH: EVQLVESGGGLVQPGGSLRISCAASGFTVSSNYMSWVRQAPGKGLEWVSVIYSGGSTYYADSVKGRFSFSRDNSKNTVFLQMNSLRAEDTAVYYCARCLSRMRGYGLDVWGQGTTVTVS VL: DIQMTQSPSSLSASVGDRVTITCRTSQSISSYLNWYQQKPGKAPKLLIYAASSLQSGVPSRFSGSGSGTDFTLTISGLQPEDFATYYCQQSYSMPAFGQGTKLEIK",binding result,binds
